What was measured:
[1] = molecular target: Plasmodium falciparum myosin A tail domain interacting protein, residues 61–204 (PfMTIPΔ60) (Plasmodium falciparum) (UniProt Q8I4W8); experiment: differential scanning fluorimetry; 5 μM PfMTIPΔ60 with 200 μM peptide in buffer A (20 mM HEPES pH 7.5, 50 mM NaCl, 1 mM TCEP), 10× SYPRO Orange, 15–80 °C
[2] = molecular target: Plasmodium falciparum myosin A tail domain interacting protein, residues 61–204 (PfMTIPΔ60) (Plasmodium falciparum) (UniProt Q8I4W8); experiment: ITC; 303 K; cell with about 200 μL of 20 μM PfMTIPΔ60 in buffer A (20 mM HEPES pH 7.5, 50 mM NaCl, 1 mM TCEP); peptide added in 2 μL injections from 250 μM; single site fit; n=1

Substance | Tm of the complex [1] [°C] | Kd [2] [µM]
acetylated peptide control1 (acetyl-capped myoA tail from Leu 805) (from UniProt Q8IDR3 805-818) | 45.4 | 
acetylated peptide control3 (acetyl-capped myoA tail from Ser 803) (from UniProt Q8IDR3 803-818) | 54.9 | 0.106
acetylated peptide control2 (acetyl-capped myoA tail from Leu 804) (from UniProt Q8IDR3 804-818) | 54.5 | 
